Laboratory results taken from publication PMC7256200, “Identifying a Molecular Mechanism That Imparts Species-Specific Toxicity to YoeB Toxins” (Frontiers in Microbiology, 2020).

Target: the molecule itself
Experiment: SEC-MALS

B1: AtYoeB toxin (Atu2017) from Agrobacterium tumefaciens, GST-His tag removed (natural protein)
chain: MKLVWTLSSWDDYEFWQRTDARMVEKINDLIRNAKRTPFAGLGKPEPLKGDMAGYWSRRITAEHRFVYRVSGSGSEQRLEVIQCRFHYQ
notes: source: E. coli BL21 (DE3), purified (NiNTA, HRV3c PreScission cleavage, Superdex 75); not shown: GST, C-terminal, cleaved
With B1 the “stoichiometry N” value was 2.
